Measured values: publication doi:10.1101/452482 (bioRxiv, 2018)
Like-named read-outs stand apart in the source and are kept apart here. Each block holds one molecule with its values, some of them ahead of it. Ends that are not written are not given here. fluorescein = fluorescein label at the N-terminus of the peptide

Assays:
[1] = molecular target: N-CoRNID labelled with Atto647N (mouse) (UniProt Q60974); assay: MST
[2] = molecular target: N-CoRNID labelled with Atto647N (mouse) (UniProt Q60974); assay: MST; remark: listed apart in the source
[3] = molecular target: N-CoRNID, nuclear receptor interaction domain of N-CoR (Gln2059 to Glu2325) (mouse) (UniProt Q60974); assay: SAXS
Chain of N-CoRNID, nuclear receptor interaction domain of N-CoR (Gln2059 to Glu2325) (mouse) (Q60974 2059-2325): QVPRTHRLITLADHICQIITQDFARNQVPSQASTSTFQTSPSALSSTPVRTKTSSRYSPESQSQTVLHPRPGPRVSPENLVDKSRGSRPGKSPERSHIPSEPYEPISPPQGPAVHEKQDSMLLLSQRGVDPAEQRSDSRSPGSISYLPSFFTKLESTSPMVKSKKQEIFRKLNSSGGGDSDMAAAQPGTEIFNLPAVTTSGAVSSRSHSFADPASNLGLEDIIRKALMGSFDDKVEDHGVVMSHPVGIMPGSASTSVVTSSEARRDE

[4] = molecular target: N-CoRNID, nuclear receptor interaction domain of N-CoR (Gln2059 to Glu2325) (mouse) (UniProt Q60974); assay: AUC + other: RPLC-UV/MS
[5] = molecular target: fluorescent peptide CoRNR1 of N-CoR; assay: fluorescence polarisation
[6] = molecular target: fluorescent peptide CoRNR2 of N-CoR; assay: fluorescence polarisation
[7] = molecular target: T1, RXR (RXRα ligand-binding domain) (mouse, UniProt P28700 227-467); assay: fluorescence polarisation
T1 sequence (looked up): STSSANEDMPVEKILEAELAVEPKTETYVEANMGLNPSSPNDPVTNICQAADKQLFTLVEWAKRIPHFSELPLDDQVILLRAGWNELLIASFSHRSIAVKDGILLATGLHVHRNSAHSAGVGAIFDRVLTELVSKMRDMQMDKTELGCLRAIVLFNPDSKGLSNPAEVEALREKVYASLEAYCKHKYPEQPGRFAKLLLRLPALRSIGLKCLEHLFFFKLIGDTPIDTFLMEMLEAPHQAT

[8] = molecular target: T1, RXR (RXRα ligand-binding domain); assay: AUC + other: RPLC-UV/MS

Chain of N-CoRNID labelled with Atto647N (mouse) (Q60974 2059-2325): as the sequence (Q60974 2059-2325) above

Kd [1]: 0.21 µM | Kd [2]: 8.6 µM | population of unbound species [3]: 51% | stoichiometry N [4]: 1 | Kd [5]: 1.68 µM | Kd [6]: 1.47 µM
Molecule: RXR/RAR heterodimer (mRXRα/hRARα), ligand-binding domains (from UniProt P28700 1-467; P10276 1-462) (complex)

Kd [1]: 4.42 µM
Molecule: RXR/RARI396E heterodimer (mRXRα/hRARαI396E) (from UniProt P28700 1-467; P10276 1-462) (complex)

Kd [7]: 22.5 µM
Molecule: fluorescein-DPASNLGLEDIIRKALMGSFD [fluorescent peptide CoRNR2 of N-CoR]

stoichiometry N [8]: 1
B1: RAR (RARα ligand-binding domain) (domain or fragment, human, UniProt P10276 176-421, looked up)
chain: ESYTLTPEVGELIEKVRKAHQETFPALCQLGKYTTNNSSEQRVSLDIDLWDKFSELSTKCIIKTVEFAKQLPGFTTLTIADQITLLKAACLDILILRICTRYTPEQDTMTFSDGLTLNRTQMHNAGFGPLTDLVFAFANQLLPLEMDDAETGLLSAICLICGDRQDLEQPDRVDMLQEPLLEALKVYVRKRRPSRPHMFPKMLMKITDLRSISAKGAERVITLKMEIPGSMPPLIQEMLENSEGLD
